Values of other authors, collected in article PMC3044768.
pKd: −log10 of the molar value. Like-named read-outs stand apart in the source and are kept apart here.

Experiments:
[1] = biological target: SARS 3CLpro 3CLpro (Severe acute respiratory syndrome coronavirus) (UniProt P0C6X7); conditions: cited from earlier work
[2] = biological target: SARS 3CLpro 3CLpro (Severe acute respiratory syndrome coronavirus) (UniProt P0C6X7); conditions: cited from earlier work; remark: listed apart in the source

Substance: SARS 3CLpro 3CLpro (from UniProt P0C6X7)
- pKd [1]: 4.90
- pKd [2]: 5.28
